We go through ten molecules from patent US20250066499A1 (SUNSHINE GUOJIAN PHARMACEUTICAL SHANGHAI, published 2025).

Where two headings read alike, the source gives them in different places.

The target of assay [1] is T1, human CD73-His protein (human, UniProt P21589 27-549).
T1 construct: Expressed in HEK-293F with a signal peptide that is not specified; In the ELISAs it was biotinylated with EZ-Link NHS-Biotin (CD73-biotin) and captured on streptavidin; in SPR and the enzyme assay it was used as CD73-His; also called CD73-his antigen; CD73-biotin
T1 sequence: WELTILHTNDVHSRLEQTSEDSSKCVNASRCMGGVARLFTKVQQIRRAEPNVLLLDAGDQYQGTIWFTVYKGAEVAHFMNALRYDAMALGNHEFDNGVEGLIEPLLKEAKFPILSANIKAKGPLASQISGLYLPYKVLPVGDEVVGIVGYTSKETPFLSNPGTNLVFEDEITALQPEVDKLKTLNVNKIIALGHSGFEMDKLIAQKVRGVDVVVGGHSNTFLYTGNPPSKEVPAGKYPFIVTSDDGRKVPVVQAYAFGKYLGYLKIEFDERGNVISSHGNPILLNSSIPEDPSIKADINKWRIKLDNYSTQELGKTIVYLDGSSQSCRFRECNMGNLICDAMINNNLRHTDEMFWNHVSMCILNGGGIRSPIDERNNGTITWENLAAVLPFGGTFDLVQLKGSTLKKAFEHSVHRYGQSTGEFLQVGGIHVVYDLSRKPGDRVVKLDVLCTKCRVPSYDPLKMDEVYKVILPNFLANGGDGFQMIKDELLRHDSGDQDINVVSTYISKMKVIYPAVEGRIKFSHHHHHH
Briefly: ELISA, biotinylated CD73-His on streptavidin plate. As for the experimental part: (§1) The ELISA plates were coated with SA protein diluted to 1.5 μg/mL in coating buffer (50 mM carbonate coating buffer, pH 9.6) and incubated overnight at 4° C. The supernatant was discarded, and the plates were washed three times with PBST. Then, 5% skimmed milk powder prepared with PBS was added for blocking and the plates were incubated for 2 h at 37° C. After washing the plates once with PBST, CD73-biotin protein (prepared by biotinylating CD73-His protein according to the EZ-Link NHS-Biotin Reagent instructions) was diluted to 0.5 μg/mL and added at 100 μL/well for incubation at room temperature for 1 h. The plates were washed three times with PBST, and the prepared murine-derived monoclonal antibodies against human CD73 were serially diluted with 1% BSA buffer prepared with PBST and added to the ELISA plates at 100 μl/well. The plates were incubated at 37° C. for 1 h. After washing the plates three times with PBST, HRP-labeled goat anti-mouse IgG secondary antibody was added and the plates were incubated for 30 min at 37° C. After washing the plates three times with PBST, the residual droplets were patted dry on absorbent paper as much as possible. Then, 100 μl of TMB color developing solution was added to each well, and the plates were incubated in the dark at room temperature for 5 min for color development. Subsequently, 50 μl of 2M H₂SO₄ stop solution was added to each well to terminate the substrate reaction. The OD values were read at 450 nm using a multimode microplate reader to analyze the binding ability of the tested antibodies to the target antigen human CD73-His.
(In general: ELISA stands for enzyme-linked immunosorbent assay.)

For assay [2], the target named is T2, CD73 protein on the surface of tumor cells (human, UniProt P21589 27-549).
T2 sequence (looked up): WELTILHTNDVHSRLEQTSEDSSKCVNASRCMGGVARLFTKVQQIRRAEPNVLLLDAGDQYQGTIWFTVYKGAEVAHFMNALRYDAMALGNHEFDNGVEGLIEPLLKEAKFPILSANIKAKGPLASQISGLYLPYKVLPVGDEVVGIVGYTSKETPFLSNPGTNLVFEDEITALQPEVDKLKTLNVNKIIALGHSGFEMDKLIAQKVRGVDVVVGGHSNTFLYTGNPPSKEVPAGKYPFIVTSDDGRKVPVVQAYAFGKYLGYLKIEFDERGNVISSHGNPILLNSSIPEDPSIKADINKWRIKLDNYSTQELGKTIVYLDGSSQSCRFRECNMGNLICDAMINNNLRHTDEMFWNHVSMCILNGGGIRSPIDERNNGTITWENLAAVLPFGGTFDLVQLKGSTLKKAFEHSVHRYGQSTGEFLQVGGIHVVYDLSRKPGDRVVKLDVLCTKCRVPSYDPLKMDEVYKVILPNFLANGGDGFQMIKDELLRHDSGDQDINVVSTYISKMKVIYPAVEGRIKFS
Briefly: cell-based or functional assay.

In assay [3] the target is T1, human CD73-His protein. In words: ELISA, biotinylated CD73-His on streptavidin plate. As for the experimental part: as §1
The binding affinity of various humanized antibodies to human CD73-his protein was measured with reference to Example 3.
The source holds these as a separate data set.

In assay [4] the target is T1, human CD73-His protein. In words: cell-based or functional assay.

The term EC50 denotes the concentration needed to bring the measured effect to its halfway point. High values mean a less potent agent, low ones a more potent agent.

B1: 56B10 (antibody, V domains shown)
VH: QVQLQQSGPELVKPGASVRISCKTSGYTFTRYYIYWVKQRPGQGLEWIGWIYPGNFNTKYNEKFKGKATLTADTSSSTAYMQLSSLTSEDSAVYFCARDVYDYAGFAYWGQGTLVTVSA
VL: DIVMTQSHRFLSTSVGDRVSITCKASQGVATAVAWYQQKPGQSPKLLIYWASTRHTGVPDRFTGSGSGTDFTLTISNVQSEDLADYFCQQYSSYPWTFGGGTKLEIK
notes: Murine hybridoma antibody; also called murine-derived antibody 56B10
As for B1, in the assay with human CD73-His protein [1], it took 0.0269 µg/mL to reach a half-maximal effect (EC50). Further, the “IC50 (ng/mL), inhibition of CD73 enzyme activity on H1975 cells (AMP/ATP, Cell Titer-Glo)” value in assay [2] was 20.7 ng/mL.

B2: 56B10-ch (antibody, human IgG4 S228P, kappa, V domains shown)
VH: QVQLQQSGPELVKPGASVRISCKTSGYTFTRYYIYWVKQRPGQGLEWIGWIYPGNFNTKYNEKFKGKATLTADTSSSTAYMQLSSLTSEDSAVYFCARDVYDYAGFAYWGQGTLVTVSA
VL: DIVMTQSHRFLSTSVGDRVSITCKASQGVATAVAWYQQKPGQSPKLLIYWASTRHTGVPDRFTGSGSGTDFTLTISNVQSEDLADYFCQQYSSYPWTFGGGTKLEIKR
notes: Chimeric: murine variable regions spliced with human IgG4 (S228P) and human kappa constant regions; also called chimeric antibody 56B10-ch
For the molecule B2, the 50% effective concentration (EC50) came out at 0.09 nM with human CD73-His protein [1] and 0.07 nM with human CD73-His protein [3].

B3: 48A11 (antibody, V domains shown)
VH: QVQLQQPGAELVKPGASVKLSCKASGYTFTSYWMHWVKQRPGQGLEWIGEINPSIGRTNYNEKFKSKATLTVDKSSSTAFMQLSSLTSEDSAVYYCARRVYGTMDYWGQGTSVTVSS
VL: DIKMTQSPSSMYASLGERVTITCKASQDINSYLSWFQQKPGKSPKTLIYRANIWVDGVPSRFSGSGSGQDYSLTISSLEYEDMGIYYCLQYDELYTFGGGTKLEIK
notes: Murine hybridoma antibody; also called murine-derived antibody 48A11
Molecule B3 displayed a concentration for a half-maximal effect (EC50) with human CD73-His protein [1] of 0.0197 µg/mL. Besides, in assay [2], the “IC50 (ng/mL), inhibition of CD73 enzyme activity on H1975 cells (AMP/ATP, Cell Titer-Glo)” value turned out to be 17 ng/mL.

B4: 48A11-ch (antibody, human IgG4 S228P, kappa, V domains shown)
VH: QVQLQQPGAELVKPGASVKLSCKASGYTFTSYWMHWVKQRPGQGLEWIGEINPSIGRTNYNEKFKSKATLTVDKSSSTAFMQLSSLTSEDSAVYYCARRVYGTMDYWGQGTSVTVSS
VL: DIKMTQSPSSMYASLGERVTITCKASQDINSYLSWFQQKPGKSPKTLIYRANIWVDGVPSRFSGSGSGQDYSLTISSLEYEDMGIYYCLQYDELYTFGGGTKLEIKR
notes: Chimeric: murine variable regions spliced with human IgG4 (S228P) and human kappa constant regions; also called chimeric antibody 48A11-ch
Regarding B4, the figures for the EC50 with human CD73-His protein [1] and in the assay with human CD73-His protein [3] were 0.067 nM and 0.058 nM, respectively.

B5: 48A11-HuV23 (antibody, human IgG4, V domains shown)
VH: QVQLVQSGAEVKKPGASVKVSCKASGYTFTSYWMHWVRQAPGQGLEWIGEINPSIGRTNYNEKFKSRATLTVDKSTSTAYMELSSLRSEDTAVYYCARRVYGTMDYWGQGTLVTVSS
VL: DIQMTQSPSSLSASVGDRVTITCKASQDINSYLSWFQQKPGKSPKLLIYRANIWVDGVPSRFSGSGSGQDYTFTISSLQPEDIATYYCLQYDELYTFGQGTKVEIK
notes: Humanized
Molecule B5 displayed an EC50 with human CD73-His protein [3] of 0.081 nM.

B6: 48A11-HuV22 (antibody, human IgG4, V domains shown)
VH: QVQLVQSGAEVKKPGASVKVSCKASGYTFTSYWMHWVRQAPGQGLEWIGEINPSIGRTNYNEKFKSRATLTVDKSTSTAYMELSSLRSEDTAVYYCARRVYGTMDYWGQGTLVTVSS
VL: DIQMTQSPSSLSASVGDRVTITCKASQDINSYLSWFQQKPGKSPKTLIYRANIWVDGVPSRFSGSGSGQDYTFTISSLQPEDIATYYCLQYDELYTFGQGTKVEIK
notes: Humanized
As to B6, the “IC50 (nM), inhibition of enzyme activity of soluble CD73-His (AMP/ATP, Cell Titer-Glo)” value with human CD73-His protein [4] was 9.02 nM. For the same molecule, the EC50 in the assay with human CD73-His protein [3] was found to be 0.093 nM.

B7: 56B10-HuV21 (antibody, human IgG4, V domains shown)
VH: QVQLVQSGAEVKKPGASVKVSCKTSGYTFTRYYIYWVRQAPGQGLEWIGWIYPGNFNTKYNEKFKGRATLTADTSASTAYMELSSLRSEDTAVYYCARDVYDYAGFAYWGQGTLVTVSS
VL: DIQLTQSPSFLSASVGDRVTITCKASQGVATAVAWYQQKPGQSPKLLIYWASTRHTGVPDRFSGSGSGTEFTLTISSLQPEDFATYYCQQYSSYPWTFGQGTKVEIK
notes: Humanized
B7 returned a half-maximal effective concentration (EC50) with human CD73-His protein [3] of 0.11 nM.

B8: 56B10-HuV32 (antibody, human IgG4, V domains shown)
VH: QVQLQQSGAEVKKPGASVKVSCKASGYTFTRYYIYWVRQRPGQGLEWIGWIYPGNFNTKYNEKFKGRATLTADTSASTAYMELSSLTSEDTAVYYCARDVYDYAGFAYWGQGTLVTVSS
VL: DIQLTQSPSFLSASVGDRVTITCKASQGVATAVAWYQQKPGKAPKLLIYWASTRHTGVPSRFSGSGSGTEFTLTISSLQPEDFATYYCQQYSSYPWTFGQGTKVEIK
notes: Humanized
In the assay with human CD73-His protein [3], B8 yielded a 50% effective concentration (EC50) of 0.105 nM.

B9: 56B10-HuV33 (antibody, human IgG4, V domains shown)
VH: QVQLQQSGAEVKKPGASVKVSCKASGYTFTRYYIYWVRQRPGQGLEWIGWIYPGNFNTKYNEKFKGRATLTADTSASTAYMELSSLTSEDTAVYYCARDVYDYAGFAYWGQGTLVTVSS
VL: DIQMTQSPSFLSASVGDRVTITCKASQGVATAVAWYQQKPGKSPKLLIYWASTRHTGVPSRFSGSGSGTEFTLTISSLQPEDFATYFCQQYSSYPWTFGQGTKVEIK
notes: Humanized
As for B9, in the assay with human CD73-His protein [4], the “IC50 (nM), inhibition of enzyme activity of soluble CD73-His (AMP/ATP, Cell Titer-Glo)” value is 4.13 nM. A half-maximal effect with human CD73-His protein [3] (EC50) was put at 0.112 nM.

B10: 56B10-HuV23 (antibody, human IgG4, V domains shown)
VH: QVQLVQSGAEVKKPGASVKVSCKTSGYTFTRYYIYWVRQAPGQGLEWIGWIYPGNFNTKYNEKFKGRATLTADTSASTAYMELSSLRSEDTAVYYCARDVYDYAGFAYWGQGTLVTVSS
VL: DIQMTQSPSFLSASVGDRVTITCKASQGVATAVAWYQQKPGKSPKLLIYWASTRHTGVPSRFSGSGSGTEFTLTISSLQPEDFATYFCQQYSSYPWTFGQGTKVEIK
notes: Humanized
The molecule B10 registered a concentration for a half-maximal effect (EC50) with human CD73-His protein [3] of 0.107 nM.
